Substitutions are numbered along the chain they refer to.

B1: Bess1 (antibody)
VH: QVQLRESGPSLVKPSQTLSLTCTVSGISLSDKAVGWVRQAPGKALEWLGSIDAGGSTGYNPGLKSRLSITTDNSKSQVSLSMSGVTTEDSATYYCTTVHQKTLKQKTCPEGYSDDDGCDDSYGCGDDCCCYGGYSDYGGYEYACCSRTYTYEFHVDAWGQGLLVTVSS
VL: QAVLNQPSSVSGSLGQRVSITCSGSSSNVGNGYVSWYQLIPGSAPRTLIYGDTSRASGVPDRFSGSRSGNTATLTISSLQAEDEADYFCASAEDSSSNAVFGSGTTLTVL
notes: also called Bess1_WT; source: Expi293 or 293F cells, transient, purified (Protein A Sepharose or Praesto AP)
B2: ElsE4 (antibody)
VH: QVQLRESGPSLVKPSQTLSLTCTTSGFSLSDKTVGWVRQAPGKALEWLGSRDSSGKTAYNPGLKSRLSITNDNSKSQVSLSLSSVSTADSATYYCTTVHQQTRKSCPDGWSFGWDCGFHGYGVGDCYDDCTDILSSQTLSPTDTYELHIDAWGQGLLVTVSS
VL: B1 VL with N5T, R17T, S25T, S35T, L39V, G42R, Y50F, S95T, A99V
notes: source: Expi293 or 293F cells, transient, purified (Protein A Sepharose or Praesto AP)
B3: Bess6 (antibody)
VH: KVQLRESGPSLVKPSQTLSLICTVSGFSLSDKAVGWVRQAPGKALEWLGSIDTAGTTDHHPGLKSRLSITKDNSKNQVSLSLSSVTTEDSATYYCTTVHQPTSKQYSCPDGASVRTGGGWRWLCRGHDCCCVVEYIAYEQTPCTLTRTYEWHIDAWGQGLLVTVSS
VL: B1 VL
notes: as for B2
B4: Bess8 (antibody)
VH: QVQLRESGPSLVKPSQTLSLTCTVSGFSLSDKAVGWVRQAPGKALEWLGSIDIGGSTGYNPGLKSRLSITKDNSKSQVSLSVTSVTTEDSATYYCTIVYQTTKTTKKCPDGYNYDDGCASDLGCGEADCCCYGGDDEYAGHLYSCCSYSHTYEWYVGAWGQGLLVTVSS
VL: B1 VL
notes: as for B2
B5: ElsE6 (antibody)
VH: KVQLQESGPSLVKPSQTLSLTCTTSGFSLSDNAVGWVRQAPGKALEWLGSIDSGGSTGYNPGLKSRLSITKDNSKSQVSLSVSSVTTADSATYYCTTVHQQTRKSCPAGYTLAKDCGFYGYGSEDCYDDCSDILSSHTLSPTTTYELHVDAWGQGLLVTVSS
VL: B1 VL with N5T, S27T, S54N, A90L, V100I, T108I
notes: as for B2
B6: Bess2 (antibody)
VH: B4 VH with Q1K, I53T, A91T, I97T, Y99H, D135Y, A139G, H141Y, H150Y, G157D
VL: B1 VL
notes: as for B2
B7: ElsE5 (antibody)
VH: QVQLQESGPSLVKPSQTLSLTCTTSGFSLSDKTVGWVRQAPGKALEWLGSIDTSGRTGYNPGLKSRLDITKDNPKRQVSLSLSSVTTADSATYYCTTVHQQTRKGCPDGWSFGWDCGFHGYGREDCYDDCTDILSSQTLSPTDTYEFHVDAWGQGLLVTVSS
VL: B1 VL with N5T, S54T, T75S, S77T, A85T
notes: as for B2
B8: ElsE1 (antibody)
VH: KVQLRESGPSLIKPSQTLSLTCTTSIFSLIDKTVGWVRQAPGKSLEWLGSIDTSGNTGYNPGLKSRLHITKDNSRSQVSLSLSSVTTADSATYYCTTVHQQTRKGCPDGWRFGWDCGFHGYGQEDCYEDCIDILSSQTLSPTDAYEFHVDAWGQGLLVTVSS
VL: B1 VL with N5T, S27G, S77T, A85T, D94G, S97N
notes: as for B2
B9: Bess7 (antibody)
VH: QVQLRESGPSLVKPSQTLSLTCTVSGFSLNDKAVGWVRQAPGRALEWLGSVSTGGSTTYNPGLKPRLSITKDNSKSQISLTVTSVTTEDSATYYCTTVHQTTKTTKECPEGYNWDDGCGSELGCGGADCCCWGGVDEYAGDLYSCCSVAHTYEWYVDAWGQGLLVTVSS
VL: B1 VL
notes: as for B2
B10: ElsE11 (antibody)
VH: KVQLRESGPSLVKPSQTLSLTCTTSGFSLSDKTVGWVRQAPGKALEWLGSTDTSGNTGYNPGLKSRLSITKDNSKSQVSLSVSSVSTADSATYYCTTVRQQTRKSCPDGWTLAKDCGFYGYGSEDCYDDCTDILSSNTLSPTTTHEFNVDAWGQGLLVTVSS
VL: B1 VL with N5T, V29T, Y33A, A56T, T71I, A85G, A90G, V100I
notes: as for B2
B11: Bess3 (antibody)
VH: QVQLRESGPSLVKPSQTLSLTCTVSGFSLSDKAVGWVRQAPGKALEWLGSIDNGENIGYNPGLKSRLSITKDNSKSQVSLSVSSVTTEDSATYYCATVHQTTKTTKQCPDGYNYDDGCASDLGCGEADCCCYGGYDDYGGYLYSCCSYTYTYEWYVDTWGQGLLVTVSS
VL: B1 VL
notes: as for B2
B12: ElsE8 (antibody)
VH: KVQLQESGPSLVKPSQTLSLTCTTSGFSLSDKGIAWVRQAPGKALEWLGSTDTTGSTNYNPGLKSRVIVTKDNSKSQVSLSLSSVTIADSATYYCTAVVQETRKSCPDGWRFGWDCGFHGYGTEDCYEDCVDILSSETVSSTDRYELHVDAWGQGLLVTVSS
VL: B1 VL with N5S, L39Q, I40F, S54G, A56S, T75S, D94G, S97K, N98H
notes: as for B2
B13: ElsE10 (antibody)
VH: KVQLRESGPSLVKPSQTLSLTCTTSGFSLSEKTVGWVRQAPGKPLEWLGTINTSGSGGSNPGLKSRLHITKDNSQSQVSLSLSSVTTADSATYYCTTVHQQTRKRCPDGWSFGWDCGFSGYGSEDCYDDCTDILSSNTLSPTDTYELHVDAWGQGLLVTVSS
VL: B1 VL with N5T, D94G, A99I, S103V
notes: as for B2
B14: Bess5 (antibody)
VH: QVQLQESGPSLVKPSQTLSLMCAASGFSLSDKTVGWVRQAPGKALEWLGSIDSSGSTGYNPGLKSRLTITKDSSKSQVSLSVSSVTTEDSATYYCTTVHQQTRNKEKTCPGGEDCGIGCCCAGCSATDYGCWDGSSYASYSYIYTYDIHVDAWGQGLLVTVSS
VL: B1 VL
notes: as for B2
B15: ElsE3 (antibody)
VH: KVQLQESGPSLVKPSQTLSLTCATSGFSLSDKTVGWVRQAPGKALEWLGSIDTSGNTGYNPLLKFRLSITKDNSKSQVSLSLSSATTADSATYYCTTVHQQTRKSCPDGYSFGYDCGFHGYGSEDCYPDCSDILTSDVVGPIDAYELHVDAWGQGLLVTVSS
VL: B1 VL with N5T, S27N, L39V, S77T, A90S, V100I
notes: as for B2
B16: ElsE9 (antibody)
VH: KVQLRESGPSLVKPSQTLSLTCTTSGFSFSDKTVGWVRQAPGKALEWLGSIDTSGTTGYNPGLKSRLSITRDDSKSQVSLSLSSVTTADLATYYCTTVRQQVHKTCPQGWRFGWDCGFHGYGSDDCYEDCIDILSSQTLSAEDTYELHVDAWGQGLLVTVSS
VL: QAVLTQPQSVRGSLGQRVSITCSGSSSNVGNGYVSWYQLIPGSAPRTLMYGDTTRASGVPDRFSGSRSGNTATLTISSLQAEDEADYFCASADGSSLHVAFGSGTTLTVL
notes: as for B2
B17: ElsE7 (antibody)
VH: QVQLQESGPSLVKPSQTLSLTCTTSGFSLSDNTVGWVRQAPGKALQWLGSITPSGSTNYNPGLKSRLGITKDNSNSQVSLSLTSATAADSATYYCTTVHQQTRKSCPDGWMFGFDCGFHGWGSEDCVDDCSDILSAQTLSPIYTNAYHVDAWGQGLLVTVSS
VL: QAVLTQPSSVSGSLGQTVSITCSGLSNNGENGDVSWYQLIPGSAPHTLMYGDTSRASGVPDRFSGSRSGNTASLTISSLQAEDEADYFCASTGDEMISLLFGSGTTLTVL
notes: as for B2

This assay has as its target BG505 gp120 (HIV-1 isolate BG505 (clade A), UniProt Q2N0S6). Nature of the assay: ELISA; 250 ng BG505 gp120 coated on the plate; monoclonal antibodies from 20 µg/mL in seven 6-fold dilutions, 1 hr, room temperature; detected with alkaline phosphatase anti-human F(ab')2. The following applies: both partners purified. (An ELISA detects its analyte on a solid surface through an enzyme-linked reagent.)
Take B1: the binding result is listed as “no binding (tested: 20 µg/mL)”. Take B2: the binding result is given as “no binding (tested: 20 µg/mL)”.

As for B3, the binding result is “no binding (tested: 20 µg/mL)”. Turning to B4, the binding result is on record as “no binding (tested: 20 µg/mL)”. In the case of B5, the binding result was “no binding (tested: 20 µg/mL)”. As for B6, the binding result is given as “no binding (tested: 20 µg/mL)”. For the molecule B7, the binding result is “no binding (tested: 20 µg/mL)”. B8: the binding result is “no binding (tested: 20 µg/mL)”.

Take B9: the binding result is “no binding (tested: 20 µg/mL)”. Turning to B10, the binding result is on record as “no binding (tested: 20 µg/mL)”.

As for B11, the binding result was “no binding (tested: 20 µg/mL)”.

In the case of B12, the binding result was “no binding (tested: 20 µg/mL)”. With B13, the binding result was “no binding (tested: 20 µg/mL)”. For B14, the binding result is “no binding (tested: 20 µg/mL)”.

For the molecule B15, the binding result is on record as “no binding (tested: 20 µg/mL)”. With B16, the binding result was “no binding (tested: 20 µg/mL)”. On to B17, for which the binding result is on record as “no binding (tested: 20 µg/mL)”.
